The Kd is the free concentration of one partner at which half of the binding sites on the other are occupied at equilibrium, for simple one-to-one binding. A low value points to higher affinity. As usually defined, the koff is the rate constant with which the complex falls apart. Lower therefore signals slow dissociation. As a reminder, the kon is a measure of how fast the partners come together. High values mean faster complex formation, low ones slower complex formation.

The source of these data is patent publication US20160032278A1.

The target of assay [1] is papain (UniProt P00784). The experiment in a line: SPR, cystatin immobilised on NTA chip via His tag, papain in solution. For orientation: SPR reads the build-up and loss of mass on a sensor chip optically.
Assay [2] addresses papain (UniProt P00784). Briefly: cell-based or functional assay.
Assay [3] addresses papain (UniProt P00784). The experiment in a line: SPR; text value differs from Table 3 (4.7 × 10^-9).

Sequence of papain (P00784 134-345 limits assumed): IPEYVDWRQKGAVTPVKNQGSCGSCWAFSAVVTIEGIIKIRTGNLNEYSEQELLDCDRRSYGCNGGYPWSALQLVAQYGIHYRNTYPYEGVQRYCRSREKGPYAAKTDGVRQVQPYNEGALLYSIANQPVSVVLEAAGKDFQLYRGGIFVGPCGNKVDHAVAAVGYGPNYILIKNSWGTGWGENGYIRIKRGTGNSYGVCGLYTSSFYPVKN

Take “CUN (satsuma orange cystatin, Citrus unshiu)”: in the assay with papain [1], the Ka was found to be 7.3e+07 M⁻¹, the Kd was 14 nM, the koff worked out at 0.0035 s⁻¹ and the kon worked out at 260000 M⁻¹ s⁻¹.
In the assay with papain [1], CPA (papaya cystatin, Carcia papaya) yielded a Ka of 5e+07 M⁻¹, a Kd of 20 nM, a koff of 0.0052 s⁻¹ and a kon of 260000 M⁻¹ s⁻¹.
For “OSA-IΔD86 (modified oryzacystatin I lacking residue Asp86) (from UniProt P09229 39-140)”, the IC50, papain inhibition (substrate pGlu-Phe-Leu-p-nitroanilide) with papain [2] came out at 1.8e-07 M. In the assay with papain [1], this substance registered a Ka of 2.1e+08 M⁻¹, a Kd of 4.7 nM, a koff of 0.0012 s⁻¹ and a kon of 260000 M⁻¹ s⁻¹. In the assay with papain [3], this substance had a Kd of 47 nM.
